# Measured values published in US8722052B2, “Vaccinia virus protein A46 peptide and use thereof” (priority 2008, dated 2014).
# Ends that are not written are not given here.
# Legend:
# TLR4 [1] = biological target: T1, TLR4 (Mus musculus, UniProt Q9QUK6); experiment: LPS-induced TNFα in immortalised murine macrophages, ELISA; type: cell-based; design: endogenous in cells; immortalised murine bone-marrow-derived macrophages; settings: peptide 1, 3, 6.25 and 12.5 μM, 20 ng/ml LPS, 6 h
# T1 sequence (Q9QUK6 26-835): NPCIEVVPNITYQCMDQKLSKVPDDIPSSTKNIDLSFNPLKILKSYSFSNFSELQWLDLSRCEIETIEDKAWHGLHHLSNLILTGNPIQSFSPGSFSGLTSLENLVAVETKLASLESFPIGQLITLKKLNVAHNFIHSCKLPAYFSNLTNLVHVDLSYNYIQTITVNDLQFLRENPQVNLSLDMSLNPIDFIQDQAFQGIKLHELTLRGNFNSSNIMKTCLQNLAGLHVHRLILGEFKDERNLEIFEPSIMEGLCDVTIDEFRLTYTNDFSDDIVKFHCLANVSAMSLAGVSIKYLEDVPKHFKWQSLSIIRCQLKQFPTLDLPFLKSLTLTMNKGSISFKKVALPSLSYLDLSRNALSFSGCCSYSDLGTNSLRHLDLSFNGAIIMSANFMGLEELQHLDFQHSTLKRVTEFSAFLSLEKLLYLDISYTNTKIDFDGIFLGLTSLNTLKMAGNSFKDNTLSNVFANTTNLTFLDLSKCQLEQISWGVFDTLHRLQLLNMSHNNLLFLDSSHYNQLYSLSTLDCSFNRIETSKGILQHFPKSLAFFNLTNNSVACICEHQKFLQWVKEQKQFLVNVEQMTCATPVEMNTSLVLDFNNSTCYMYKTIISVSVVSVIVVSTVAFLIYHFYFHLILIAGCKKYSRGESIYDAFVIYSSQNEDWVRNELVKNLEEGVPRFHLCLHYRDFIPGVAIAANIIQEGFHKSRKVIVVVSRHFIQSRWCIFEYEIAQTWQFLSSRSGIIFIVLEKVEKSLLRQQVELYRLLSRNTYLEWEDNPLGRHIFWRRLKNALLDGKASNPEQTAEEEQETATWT
# T1 sequence (Q9JHF9 19-160 partner): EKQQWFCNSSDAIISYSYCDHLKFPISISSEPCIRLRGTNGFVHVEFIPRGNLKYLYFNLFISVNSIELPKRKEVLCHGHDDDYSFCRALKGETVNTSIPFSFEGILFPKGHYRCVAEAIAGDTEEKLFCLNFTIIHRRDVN
# TLR4 [2] = experiment: LPS-induced NFκB reporter assay in HEK293_TLR4 cells; type: cell-based, human; settings: peptide 1, 5 or 25 μM 1 h before 10 ng/ml LPS, 6 h
# Description: (§1) FIGS. 20A and B are bar charts showing the effect of shortened A464 peptides with deletions of N- and C-terminal amino acids on TLR4- and TLR3-induced NFκB activation in HEK293 cells. HEK293_TLR4 (A) and HEK293_TLR3 (B) cells were seeded in 96 well plates (1.5×10^5 cells/ml) 24 hours before transfection with the plasmid DNA. Cells were transfected with 60 ng NFκB-Luciferase and 20 ng of TK-Renilla reporter genes, as in FIG. 11. A464N-2 (SEQ ID NO. 41) and A464C-3 (SEQ ID NO. 42) peptides were added to the cells at a concentration of 1, 5 or 25 μM the next day and cells were stimulated with either 10 ng/ml LPS (A) or 25 μg/ml Poly(I:C) (B) 1 hour after treatment with peptides. Cells were harvested and assayed for NFκB activation by reporter gene assay 6 hours after stimulation with the agonists. No peptides were added to the control wells (black bars). Data is representative of three experiments each performed in triplicate and is expressed as mean fold induction±s.d. relative to control levels;
# FIGS. 24A and B are bar charts showing the effect of A464 on ligand-independent TLR4 signalling in HEK293 cells. HEK293_TLR4 cells were seeded in 96 well plate (1.5×10^5 cells/ml) 24 hours before transfection with NFκB-luciferase and TK-Renilla reporter gene plasmids. NFκB activation was stimulated by transfecting either 50 or 100 ng of CD4/TLR4-encoding plasmid or by stimulating with 10 ng/ml LPS. The total amount of plasmid DNA transfected into the cells was made up to 230ng by adding pcDNA. A464 (SEQ ID NO. 20) was added to the cells at a concentration of 5 or 25 μM 2 hours (A) or 9 hours (B) after the transfection or LPS-stimulation. Cells were harvested and assayed for NFκB activation by reporter gene assay 24 hours post-transfection. No peptides were added to the control wells (black bars). Data is representative of two experiments, each performed in triplicate and is expressed as mean fold induction±s.d. relative to control levels;
# HEK293 cells were transfected using GeneJuice® a proprietary non-toxic transfection reagent. […]
# TLR3 = biological target: T2, TLR3 (Homo sapiens, UniProt O15455); experiment: poly(I:C)-induced NFκB / ISRE luciferase reporter assay in HEK293_TLR3 cells; type: cell-based; settings: peptide 1, 5 or 25 μM, 25 μg/ml Poly(I:C), 6 h
# T2 construct: expressed in transfected cells
# Description: FIGS. 11A and B are bar charts showing the effect of A464 and scrambled A464 (ConA464) on poly(I:C)-induced TLR3 signalling in HEK293 cells. HEK293_TLR3 cells were seeded in 96 well plates (1.5×10^5 cells/ml) 24 hours before transfection with the plasmid DNA. Cells were transfected with 60 ng of either ISRE-Luciferase (A) or NFκB-Luciferase (B) and 20 ng of TK-Renilla reporter gene plasmids. The total volume of plasmid DNA transfected into the cells was made up to 230 ng by adding pcDNA.
# Scrambled A464 (ConA464) (SEQ ID NO. 32) and A464 (SEQ ID NO. 20) peptides were added to the cells at a concentration of 2, 5 or 10 μM the next day and cells were stimulated with 25 μg/ml poly(I:C) 1 hour after treatment with the peptide. Cells were harvested and reporter gene assays performed 6 hr after stimulation with the agonist. No peptides were added to the control wells (black bars). Data is representative of at least three experiments each performed in triplicate. Data are expressed as mean fold induction±s.d. relative to control levels;
# as §1
# HEK293 cells were transfected using GeneJuice® a proprietary non-toxic transfection reagent. 200 μl/well cells at a density of 1×10^5 cells/ml were seeded the day before transfection. 0.8 μl of GeneJuice was mixed with 9.2 μl of serum-free DMEM (SFM) per transfection and incubated for 5 min at room temperature before adding the appropriate amount of the plasmid DNA. The GeneJuice/SFM/DNA mixture was then incubated at room temperature for 15 min before adding to the cells. 10 μl per well of the GeneJuice/SMF/DNA mixture was added to the cells in triplicate and the cells were allowed to recover for 18-20 hours before stimulation. […]
# TLR4 [3] = experiment: LPS-induced TNFα in PMA-differentiated U937 cells, ELISA; type: cell-based, human; settings: peptide 5 or 20 μM 1 h before 100 ng/ml LPS, 24 h
# Description: FIGS. 3A and B are bar charts showing the effect of peptides derived from A46 on LPS-induced TNFα in human U937 cells. Cells were differentiated with 200 nM PMA and seeded in 96 well plates (2×10^5 cells/ml) 24 hours before treatment. A46 peptides were added to the cells at a concentration of 5 or 20 μM 1 hour before stimulating with 100 ng/ml LPS. Supernatants were collected 24 hours after stimulation and assayed for TNFα by ELISA. No peptides were added into the control wells (black bars). (A) peptides A461-A467 (SEQ ID NO. 17 to 23). (B) peptides A468-A4614 (SEQ ID NO. 24 to 30) (excluding A4612 SEQ ID NO. 28). Data is representative of at least two experiments each performed in triplicate and is expressed as mean±s.d;
# Cytokine and chemokine production from cells or mouse serum was measured by ELISA using Duoset kits from R&D systems, according to the manufacturer's instructions.
# LPS is a component of a cell wall of Gram-negative bacteria which is recognised by a homodimer of TLR4 and signals to NFκB via both a MyD88- and TRIF-dependent pathway (O'Neill and Bowie, 2007). In order to examine the effect of the peptides on TLR4-dependent gene induction in human cells, the human monocytic lymphoma cell line U937 was used. U937 cells were differentiated into macrophages by treatment with 200 nM PMA for 24 hours before any further manipulations. […]
# PBMCs = experiment: MTT cell viability assay, PBMC; type: cell-based, human; settings: peptide 1, 5 and 25 μM
# Description: FIGS. 13A and B are bar charts showing the effect of A467 and A464 on LPS-induced TNFα production and on cell viability in primary human cells. Peripheral blood mononuclear cells (PBMCs) were seeded in 96 well plates (1 ×10^6 cells/ml) 24 hours before treatment. A467 (SEQ ID NO. 23) and A464 (SEQ ID NO. 20) were added to the cells at 1, 5 and 25 μM 1 hour before stimulating with 10 ng/ml LPS. The peptides were added into the unstimulated control wells at 25 μM. Supernatants were collected 6 hours after stimulation and assayed for TNFα production by ELISA (A). The cells were assayed for viability by the MTT assay (B). No peptides were added to the control wells (black bars). Data is representative of at least three experiments each performed in triplicate and is expressed as mean±s.d;
# Cell viability was measured by assessing mitochondrial function using an MTT (3-(4,5-Dimethylthiazol-2-yl)-2,5-diphenyltetrazolium bromide) assay. Cells were seeded into 96 well plates and treated with peptides and agonists as described above in relation to the Figs. Wells containing medium only served as a blank control. To terminate treatment of cells, medium was removed and the cells were washed once with PBS. […] MTT was then removed and 200 μl per well of dimethyl sulphoxide (DMSO) was added and cells incubated for 20 min at 37° C. in the dark, prior to absorbance being read at 595 nm on a spectrophotometer.
# Sequence of TLR4 (O00206 24-839): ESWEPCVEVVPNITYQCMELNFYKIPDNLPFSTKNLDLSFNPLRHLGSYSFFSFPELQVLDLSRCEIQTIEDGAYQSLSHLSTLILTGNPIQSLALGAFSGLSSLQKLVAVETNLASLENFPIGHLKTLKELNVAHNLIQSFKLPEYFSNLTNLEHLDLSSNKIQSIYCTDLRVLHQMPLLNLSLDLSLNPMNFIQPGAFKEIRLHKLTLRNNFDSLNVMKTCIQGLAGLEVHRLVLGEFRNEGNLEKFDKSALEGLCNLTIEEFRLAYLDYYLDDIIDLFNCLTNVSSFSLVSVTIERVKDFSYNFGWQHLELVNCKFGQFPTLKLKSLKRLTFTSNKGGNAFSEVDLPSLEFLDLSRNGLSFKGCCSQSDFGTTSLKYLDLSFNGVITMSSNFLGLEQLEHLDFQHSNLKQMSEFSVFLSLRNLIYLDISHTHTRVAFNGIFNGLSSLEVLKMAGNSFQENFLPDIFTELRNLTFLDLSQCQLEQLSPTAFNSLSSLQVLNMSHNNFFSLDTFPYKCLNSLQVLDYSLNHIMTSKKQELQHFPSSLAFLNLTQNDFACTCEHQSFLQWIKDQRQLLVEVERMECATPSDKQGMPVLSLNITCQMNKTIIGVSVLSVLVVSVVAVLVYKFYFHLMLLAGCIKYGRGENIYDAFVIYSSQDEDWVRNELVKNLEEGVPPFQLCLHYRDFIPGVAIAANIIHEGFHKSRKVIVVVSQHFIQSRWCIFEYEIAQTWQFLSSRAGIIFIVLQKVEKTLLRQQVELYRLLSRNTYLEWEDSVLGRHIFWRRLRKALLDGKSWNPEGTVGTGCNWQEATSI
# Sequence of TLR4 (Q9Y6Y9 17-160 partner limits assumed): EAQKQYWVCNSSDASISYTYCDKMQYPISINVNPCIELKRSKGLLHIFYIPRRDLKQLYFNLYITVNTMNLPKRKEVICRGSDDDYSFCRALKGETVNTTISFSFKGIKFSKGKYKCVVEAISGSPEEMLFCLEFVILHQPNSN
substance,measurement,setting,value
9R-FKLIL (RRRRRRRRRFKLIL) [Peptide 9R-FKLIL],inhibition of TLR4-induced murine TNFα by shorter versions of sA464N9R,TLR4 [1],retained the ability to inhibit TLR4
9R-SFKLFL (RRRRRRRRRSFKLFL) [Peptide 9R-SFKLFL],inhibition of TLR4-induced murine TNFα by shorter versions of sA464N9R,TLR4 [1],did not
9R-SFKLI (RRRRRRRRRSFKLI) [Peptide 9R-SFKLI],inhibition of TLR4-induced murine TNFα by shorter versions of sA464N9R,TLR4 [1],did not
KYSFKLIL-9R (KYSFKLILRRRRRRRRR) [Peptide A464C-3],inhibition of LPS-induced NFκB activation by shortened peptides,TLR4 [2],inhibited LPS-induced NFκB activation completely at 1 μM
same,inhibition of Poly(I:C)-induced NFκB activation (TLR3) by shortened peptides,TLR3,no inhibition of TLR3 signalling to NFκB up to 25 μM
LILAEYIRHRNRRRRRRRRR [Peptide A465],inhibition of LPS (TLR4)-induced TNFα production,TLR4 [3],did not inhibit TLR4 responses
RNTISGNIYSARRRRRRRRR [Peptide A467],toxicity (MTT),PBMCs,not toxic
SFKLILAEY-9R (SFKLILAEYRRRRRRRRR) [Peptide A464N-2],inhibition of LPS-induced NFκB activation by shortened peptides,TLR4 [2],inhibited LPS-induced NFκB activation completely at 1 μM
same,inhibition of Poly(I:C)-induced NFκB activation (TLR3) by shortened peptides,TLR3,no inhibition of TLR3 signalling to NFκB up to 25 μM
